The values that follow come from paper PMC3126804.

For assay [1], the target named is heat shock protein 60 (Hsp60) on human ileocecal epithelial HCT-8 cells (human (endogenous in HCT-8)) (UniProt P10809). In words: adhesion of protein-coated fluospheres to cell monolayers; as the fluosphere assay on HCT-8 monolayers, but protein concentrations adjusted to have an equal number of molecules of each protein before immobilising on beads.
Assay [2] shares this target. Kind of assay: adhesion of protein-coated fluospheres to cell monolayers; sulphate-modified fluospheres (1.0 µm) coated with 160 µg/mL of each purified protein (average bound 140 µg/ml) or 0.1% BSA, added to confluent HCT-8 monolayers (cells to spheres about 1:100), 2 h at 37°C, washed five times, read at 485/538 nm; also after pretreatment of cells with anti-Hsp60 MAb (1 µg/well, 1 h).

Assay [3] has as its target Listeria adhesion protein (LAP), full-length (Listeria monocytogenes). In words: ELISA; called immunofluorescence assay in microtiter plates: LAP proteins immobilised at 62.5–500 ng/100 µL (0.05 M sodium carbonate, pH 9.6) in Immulon 4HBX plates; Hsp60 100 µL of 2.4 µg/mL, RT 1.5 h; anti-Hsp60, HRP anti-mouse, fluorescent substrate Super Red; controls subtracted; KD from the 1-site binding equation (Prism 3).

Assay [4] addresses LAP subdomain N2 (Gly224–Gly411) (Listeria monocytogenes (strain F4244)). Described as above.

As to “Listeria adhesion protein (LAP), full-length (natural protein)”, the mean fluorescence unit (fluorescence unit) is 1380 in assay [1] and 999 in assay [2].
As to “heat shock protein 60 (Hsp60), purified (from UniProt P10809 27-573) (natural protein)”, the values for the Kd in assay [3] and in assay [4] were 7.17 nM and 9.51 nM, respectively.
“LAP subdomain N2 (Gly224–Gly411) (domain or fragment)”: the mean fluorescence unit (fluorescence unit) in assay [1] is 1360; in assay [2], 1400.
